We go through 1 protein from publication PMC3905845, “Intracellular dynamics of archaeal FANCM homologue Hef in response to halted DNA replication” (Nucleic Acids Research, 2013).

The data set deals with the molecule itself. Description: AUC; sedimentation velocity (0.9, 1 and 1.6 mg/ml) and sedimentation equilibrium (0.6 or 1 mg/ml) at 20°C in buffer C (2M KCl, 10 mM Hepes, pH 7.0), absorbance at 280 nm; SEDFIT and SEDPHAT.

B1: Haloferax volcanii Hef protein (helicase-associated endonuclease fork-structure DNA), full length with a six-histidine tag (natural protein, UniProt D4GYC2 1-858, looked up)
chain: MSASEDVAYVDHPLLAPSFIERRLYQIRLAGTARDGHTLVCLPTGLGKTTVSLLVTAQRLHDVGGKSLFLAPTKPLVQQHADFYREALTVPDDEIVVFTGDVRPDDRAELWQEAQIVIATPQVIENDLIGNRISLRDVTHLTFDECHRASGDYAYVYIAERYHAAAENPLVTGMSASPGGDEEAILEVCENLGIVDVEVMTEEDADVSEYTHDTDVEWNRIQLPDEILEIRDALNEVITDRLEKLKQLGVTKSTKPDISQKKLNRMRAELQRLMNADKSEGYKGMSTHAEVMKLRRAVELVETQSVESVRRYFERQRNAARSSGASKASQRLVAEPKVREAMRKAESFDGLHPKFRKTRILLAETLGIQNGERVIVFTESRDTAEALTEFLSESFSVRRFVGQGDREGSDGMTQNEQQETLDKFRNGEFEVLVSTSVAEEGLDVPEVDLVLFFEPVPTAIRSIQRKGRTGRQADGRVVVLLAEDTRDEAYFWISRRREKTMQNELRDLKGAADDLEAELDPSQRDLSAFAGDDASSAGSAGSSTRNEGVDVASEGDANGASATASSASNGRTATAAATDSDGQSGLADFGPSDEALARADDGDDSHGEDADPADSGDDPASDAEGDEVDDSATVAAAGTDDEDTVEIVVDQRELDSNIARTLSKREDLTTRLETLAVGDYVLSDRVAVERKSVSDFLDTLTGGDRSIFEQIADLTRHYARPLLVIEGRGLYEERNIHPGAIRGALSSVAVDFNVSVLFTEDEDDTAELLATIATREQTDRERTVSVHGGKSAKTLDEQQEYVVSAIADIGPVTARTLLEAFGSVEAVMTANEEDLKEVRGVGQVTAERIREVVGSEYR
notes: Hef helicase/endonuclease of the XPF/MUS81/FANCM family, Haloferax volcanii; full-length protein; predicted monomeric molecular mass 93.95 kDa; hef amplified from plasmid pTA1097 and cloned into pTA963 (PciI-EcoRI); also called HvoHef; Hef holoprotein; source: H. volcanii (native host, strain lacking hef, tryptophan-induced), purified (Ni-NTA agarose, S-200 gel filtration)
As for B1, the “stoichiometry N” value is 2.

What is called stoichiometry N is a count of units in the complex or per binding partner.
